The text below walks through data of US20030100484A1.

In this assay the target is urotensin II receptor (human) (UniProt Q9UKP6). Nature of the assay: cell-based or functional assay.
UniProt Q9UKP6, sequence (Q9UKP6 whole entry): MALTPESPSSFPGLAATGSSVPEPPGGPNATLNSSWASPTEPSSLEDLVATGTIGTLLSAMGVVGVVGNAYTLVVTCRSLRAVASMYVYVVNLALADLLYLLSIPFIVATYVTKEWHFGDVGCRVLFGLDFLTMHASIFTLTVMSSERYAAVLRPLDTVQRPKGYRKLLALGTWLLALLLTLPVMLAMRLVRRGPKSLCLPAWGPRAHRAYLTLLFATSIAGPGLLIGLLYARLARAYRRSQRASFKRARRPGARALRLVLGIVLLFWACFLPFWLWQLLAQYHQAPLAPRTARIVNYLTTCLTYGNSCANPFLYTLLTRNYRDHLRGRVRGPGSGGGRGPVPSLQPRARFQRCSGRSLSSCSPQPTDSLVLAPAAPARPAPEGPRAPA

For “urotensin II (from UniProt O95399 114-124) (peptide)”, the CTGF mRNA (real-time PCR, GAPDH mRNA as reference) in human heart fibroblasts after 6 h with 1 µM urotensin II; control 0.45 +/- 0.27 (relative to GAPDH mRNA) was 0.88; the Col 1 mRNA (real-time PCR, GAPDH mRNA as reference) in human heart fibroblasts after 6 h with 1 µM urotensin II; control 0.56 +/- 0.1 (relative to GAPDH mRNA) is 0.92; the MMP 2 mRNA (real-time PCR, GAPDH mRNA as reference) in human heart fibroblasts after 6 h with 1 µM urotensin II; control 0.43 +/- 0.2 (relative to GAPDH mRNA) turned out to be 0.65; the TGFbeta1 mRNA (real-time PCR, GAPDH mRNA as reference) in human heart fibroblasts after 6 h with 1 µM urotensin II; control 0.60 +/- 0.09 (relative to GAPDH mRNA) came to 0.81.
